Our source for the Kd values is article PMC10706732.

Usually Kd stands for the concentration at which binding is half-saturated. Read a high Kd as weaker binding.

The target in this assay is Human ceruloplasmin (human) (UniProt P00450). Nature of the assay: SPR; Biacore X100; human CP immobilised on CM5 chip by EDC/NHS (3.3 ng/mm2); LF or LF/8OA as analyte in HBS-P+ (150 mM NaCl, 10 mM Hepes pH 7.5, 0.05% polyoxyethylene sorbitan), 30 uL/min; 1:1 Langmuir model. A general note: Surface plasmon resonance follows binding to a sensor surface in real time, without labels.
Chain of UniProt P00450 (P00450 20-1065): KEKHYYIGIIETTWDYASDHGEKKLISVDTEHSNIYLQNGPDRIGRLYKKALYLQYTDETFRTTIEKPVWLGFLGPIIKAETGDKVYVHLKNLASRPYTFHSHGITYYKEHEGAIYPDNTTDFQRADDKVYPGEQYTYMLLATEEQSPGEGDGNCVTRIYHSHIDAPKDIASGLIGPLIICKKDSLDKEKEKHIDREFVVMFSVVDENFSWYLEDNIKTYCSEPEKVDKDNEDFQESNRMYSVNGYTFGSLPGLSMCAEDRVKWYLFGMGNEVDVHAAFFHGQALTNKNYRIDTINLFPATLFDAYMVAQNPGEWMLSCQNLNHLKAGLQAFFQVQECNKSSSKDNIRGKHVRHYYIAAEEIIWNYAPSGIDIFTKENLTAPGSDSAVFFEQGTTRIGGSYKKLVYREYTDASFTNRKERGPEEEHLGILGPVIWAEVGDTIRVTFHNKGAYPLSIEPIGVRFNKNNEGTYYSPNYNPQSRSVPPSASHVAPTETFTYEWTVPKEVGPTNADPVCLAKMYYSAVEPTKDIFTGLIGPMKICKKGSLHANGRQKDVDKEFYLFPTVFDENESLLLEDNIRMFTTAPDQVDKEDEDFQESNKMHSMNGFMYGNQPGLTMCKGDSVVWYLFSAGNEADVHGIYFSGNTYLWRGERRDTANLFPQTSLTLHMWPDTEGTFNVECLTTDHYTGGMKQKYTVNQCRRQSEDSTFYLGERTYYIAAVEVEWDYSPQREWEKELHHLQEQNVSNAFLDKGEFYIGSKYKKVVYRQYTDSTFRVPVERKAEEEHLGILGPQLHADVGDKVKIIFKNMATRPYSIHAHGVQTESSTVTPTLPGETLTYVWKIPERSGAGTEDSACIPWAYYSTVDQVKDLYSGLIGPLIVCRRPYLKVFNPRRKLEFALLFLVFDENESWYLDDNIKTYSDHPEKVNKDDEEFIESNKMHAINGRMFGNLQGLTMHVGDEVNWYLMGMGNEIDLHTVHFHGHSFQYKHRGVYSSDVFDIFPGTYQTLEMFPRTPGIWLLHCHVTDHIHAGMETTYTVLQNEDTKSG

Consider “Complex formed by one human lactoferrin molecule and eight molecules of oleic acid”, for which the Kd came to 407 nM.

“Recombinant human lactoferrin (natural protein)” registered a Kd of 367 nM.
